From patent US20230203463, “RNA-GUIDED NUCLEASES AND ACTIVE FRAGMENTS AND VARIANTS THEREOF AND METHODS OF USE” (LifeEDIT Therapeutics, Inc., published 2023) come the findings set out here.

One data set relates to T1, APG05405 (Bacillus sp.).
T1 sequence: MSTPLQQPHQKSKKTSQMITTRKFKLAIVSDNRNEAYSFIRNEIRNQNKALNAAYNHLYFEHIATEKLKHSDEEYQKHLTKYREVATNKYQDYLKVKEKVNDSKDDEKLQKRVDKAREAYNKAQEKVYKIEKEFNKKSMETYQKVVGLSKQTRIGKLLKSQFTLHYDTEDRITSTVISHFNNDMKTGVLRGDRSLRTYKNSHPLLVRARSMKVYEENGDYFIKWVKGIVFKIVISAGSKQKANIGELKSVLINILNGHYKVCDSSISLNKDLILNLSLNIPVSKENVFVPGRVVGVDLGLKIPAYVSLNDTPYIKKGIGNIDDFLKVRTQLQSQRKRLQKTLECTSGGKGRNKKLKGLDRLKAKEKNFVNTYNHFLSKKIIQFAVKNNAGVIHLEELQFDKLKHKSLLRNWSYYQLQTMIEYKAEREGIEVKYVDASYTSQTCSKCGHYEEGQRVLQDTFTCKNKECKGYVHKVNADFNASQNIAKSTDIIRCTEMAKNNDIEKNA
The data set can be described thus: cleavage_in_vitro. As to conditions: trans cleavage.

The target in the next data set is T2, APG05405 (Bacillus sp.).
T2 chain: T1 sequence
The data set can be described thus: thermal shift; peak 43 C vs 36 C without RNA. As to conditions: tags: C-terminal His10. As to the method:
(§1) RNA binding was confirmed by differential scanning fluorimetry (Niesen, F.H., H. Berglund, and M. Vedadi. 2007. Nat. Protoc. 2: 2212-2221). Dual RNA complexes were produced by mixing an excess of crRNA with tracrRNA in Annealing Buffer (Synthego, 60 mM KCl 6 mM HEPES pH 7). The candidate effector protein and guide RNA (either dual RNA complex or sgRNA) were incubated at final concentrations of 0.5 µM effector protein and 1 µM guide RNA in phosphate buffered saline (PBS, Thermo Fisher). These were incubated for 20 minutes at room temperature and then mixed 1:1 with Sypro Orange dye solution that had been diluted in PBS. A melt curve was obtained measuring fluorescence intensity (FI) as a function of temperature and the first derivative of the melt curve (dFI/dT) was calculated. A shift in the plot of dFI/dT as a function of temperature of the putative RNP relative to the original nuclease indicates RNA binding and was used to evaluate putative guide RNA combinations. […] Peak 1 refers to the temperature associated with the largest observed peak for the given sample. If a second peak is observed, it is indicated in the Peak 2 column. Interpretation of the data regarding the formation of a complex is indicated in the “Binding?” column Table 3. “Yes” indicates binding was observed. “N/A” indicates sufficient data was not available to determine if binding could occur.

The next data set has as its target T3, APG09624 (Bacillus sp.).
T3 chain: T1 sequence with D102A, I177L, T311N, K326N, S333N, N352S
The data set can be described thus: thermal shift; peaks 39 and 44 C vs 38 C without RNA. As to conditions: tags: C-terminal His10. As to the method: as §1

Substitutions are numbered along the chain they refer to.

Take “GGGAAACAGCUAGAAUGUAACUUAAAGUAGGUCAAUGUUUAAAUUCGAUGUUGCAAUUUGUUUGGACAAGUGGAUUAAAACGUUCCUUGAAAAUCAUAUAAAGCAGCCAGUUUACGGGCUUGGGCGAAUUUGCGUCCAAAGGGUGAGGCCAGGUGUAAGUAAGAACCUACAAAAGCACUCACCAAAGGGUCAAAAAGAUCCUACAUGGAUGUGAGGAUUGAAAUACUACAACAGCCACAACG / TCGTCGGCAGCGTCAGATGTGTATAAGAGACAGAACGACGGCCAGTGAATTNNNNNNNNACTACAACAGCCACAACGTCTATATCATGGGATCCTCTAGAGTCGACCTGCTGTCTCTTATACACATCTCCGAGCCCACGAGAC / GTCTCGTGGGCTCGGAGATGTGTATAAGAGACAGCAGGTCGACTCTAGAGGATCCCATGATATAGACGTTGTGGCTGTTGTAGTNNNNNNNNAATTCACTGGCCGTCGTTCTGTCTCTTATACACATCTGACGCTGCCGACGA [sgRNA Gsg.2 ; dsPCR2]”: in the data set with APG05405 (Bacillus sp.) (NEBuffer 2, 37 C, degenerate 8 bp 5' of target, PAM not determined), the activity turned out to be 768 AU/min. Take “GGGAAACAGCUAGAAUGUAACUUAAAGUAGGUCAAUGUUUAAAUUCGAUGUUGCAAUUUGUUUGGACAAGUGGAUUAAAACGUUCCUUGAAAAUCAUAUAAAGCAGCCAGUUUACGGGCUUGGGCGAAUUUGCGUCCAAAGGGUGAGGCCAGGUGUAAGUAAGAACCUACAAAAGCACUCACCAAAGGGUCAAAAAGAUCCUACAUGGAUGUGAGGAUUGAAAUACUACAACAGCCACAACG / TCGTCGGCAGCGTCAGATGTGTATAAGAGACAGAACGACGGCCAGTGAATTNNNNNTGGAATGGGAACTAAAGTAATGGCAAACGAATTCGTAGGATCCTCTAGAGTCGACCTGCTGTCTCTTATACACATCTCCGAGCCCACGAGAC / GTCTCGTGGGCTCGGAGATGTGTATAAGAGACAGCAGGTCGACTCTAGAGGATCCTACGAATTCGTTTGCCATTACTTTAGTTCCCATTCCANNNNNAATTCACTGGCCGTCGTTCTGTCTCTTATACACATCTGACGCTGCCGACGA [sgRNA Gsg.2 ; dsPCR3]”: in the data set with APG05405 (Bacillus sp.) (non-matching guide), the activity turned out to be 102 AU/min. For the molecule “GGGAAACAGCUAGAAUGUAACUUAAAGUAGGUCAAUGUUUAAAUUCGAUGUUGCAAUUUGUUUGGACAAGUGGAUUAAAACGUUCCUUGAAAAUCAUAUAAAGCAGCCAGUUUACGGGCUUGGGCGAAUUUGCGUCCAAAGGGUGAGGCCAGGUGUAAGUAAGAACCUACAAAAGCACUCACCAAAGGGUCAAAAAGAUCCUACAUGGAUGUGAGGAUUGAAAUUGGAAUGGGAACUAAAGU / TCGTCGGCAGCGTCAGATGTGTATAAGAGACAGAACGACGGCCAGTGAATTNNNNNNNNACTACAACAGCCACAACGTCTATATCATGGGATCCTCTAGAGTCGACCTGCTGTCTCTTATACACATCTCCGAGCCCACGAGAC / GTCTCGTGGGCTCGGAGATGTGTATAAGAGACAGCAGGTCGACTCTAGAGGATCCCATGATATAGACGTTGTGGCTGTTGTAGTNNNNNNNNAATTCACTGGCCGTCGTTCTGTCTCTTATACACATCTGACGCTGCCGACGA [sgRNA Gsg.3 ; dsPCR2]”, in the data set with APG05405 (Bacillus sp.) (non-matching guide), the activity was 78 AU/min.

As to “GGGAAACAGCUAGAAUGUAACUUAAAGUAGGUCAAUGUUUAAAUUCGAUGUUGCAAUUUGUUUGGACAAGUGGAUUAAAACGUUCCUUGAAAAUCAUAUAAAGCAGCCAGUUUACGGGCUUGGGCGAAUUUGCGUCCAAAGGGUGAGGCCAGGUGUAAGUAAGAACCUACAAAAGCACUCACCAAAGGGUCAAAAAGAUCCUACAUGGAUGUGAGGAUUGAAAUUGGAAUGGGAACUAAAGU / TCGTCGGCAGCGTCAGATGTGTATAAGAGACAGAACGACGGCCAGTGAATTNNNNNTGGAATGGGAACTAAAGTAATGGCAAACGAATTCGTAGGATCCTCTAGAGTCGACCTGCTGTCTCTTATACACATCTCCGAGCCCACGAGAC / GTCTCGTGGGCTCGGAGATGTGTATAAGAGACAGCAGGTCGACTCTAGAGGATCCTACGAATTCGTTTGCCATTACTTTAGTTCCCATTCCANNNNNAATTCACTGGCCGTCGTTCTGTCTCTTATACACATCTGACGCTGCCGACGA [sgRNA Gsg.3 ; dsPCR3]”, the activity in the data set on APG05405 (Bacillus sp.) (NEBuffer 2, 37 C, degenerate 5 bp 5' of target, PAM not determined) amounted to 780 AU/min.

B1: crRNA 143 + tracrRNA 145 (ssRNA)
RNA 1: GUCACAUCCUACAUGGAUGUGAGGAUUGAAAUUGGAAUGGGAACUAAAGUAAUGG
RNA 2: AAACAGCUAGAAUGUAACUUAAAGUAGGUCAAUGUUUAAAUUCGAUGUUGCAAUUUGUUUGGACAAGUGGAUUAAAACGUUCCUUGAAAAUCAUAUAAAGCAGCCAGUUUACGGGCUUGGGCGAAUUUGCGUCCAAAGGGUGAGGCCAGGUGUAAGUAAGAACCUACAAAAGCACUCACCAAAGGGUCAACUCGAUACAUU
As to B1, the binding result with APG05405 and with APG09624 was “binds” each time.
